Source: CN116284353A (HUASONG SHANGHAI BIOMEDICAL TECH CO LTD, dated 2023)

Molecular target: T1, EV A71 VLP (Enterovirus A71, UniProt Q66478 2-862)
T1 construct: Multi-subunit particle
T1 sequence: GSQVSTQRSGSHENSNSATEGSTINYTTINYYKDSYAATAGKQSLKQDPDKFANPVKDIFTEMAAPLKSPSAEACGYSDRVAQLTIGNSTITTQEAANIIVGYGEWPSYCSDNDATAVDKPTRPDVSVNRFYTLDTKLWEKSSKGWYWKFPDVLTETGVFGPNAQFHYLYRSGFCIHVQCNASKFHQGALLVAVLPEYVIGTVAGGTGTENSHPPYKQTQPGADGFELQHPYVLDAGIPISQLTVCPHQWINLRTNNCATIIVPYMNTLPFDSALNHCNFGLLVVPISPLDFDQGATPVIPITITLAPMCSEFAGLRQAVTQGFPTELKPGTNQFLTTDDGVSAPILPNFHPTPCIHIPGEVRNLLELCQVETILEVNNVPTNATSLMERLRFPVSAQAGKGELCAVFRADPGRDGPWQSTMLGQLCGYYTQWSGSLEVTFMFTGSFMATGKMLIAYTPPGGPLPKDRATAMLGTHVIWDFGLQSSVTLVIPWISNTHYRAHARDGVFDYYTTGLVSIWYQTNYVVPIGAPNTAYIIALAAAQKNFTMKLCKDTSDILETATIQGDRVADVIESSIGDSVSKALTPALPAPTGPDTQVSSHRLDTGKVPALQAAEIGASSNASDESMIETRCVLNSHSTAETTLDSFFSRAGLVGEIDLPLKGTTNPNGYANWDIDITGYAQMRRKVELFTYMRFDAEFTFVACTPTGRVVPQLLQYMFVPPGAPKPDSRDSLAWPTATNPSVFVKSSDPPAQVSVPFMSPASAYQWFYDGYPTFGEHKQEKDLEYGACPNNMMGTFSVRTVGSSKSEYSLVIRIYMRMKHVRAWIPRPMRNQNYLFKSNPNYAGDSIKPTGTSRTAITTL
Test: Western blot on denatured VLP

B1: 单克隆抗体3C4 (antibody, mouse IgG1, kappa, V domains shown)
VH: QVTLKESGPGILQPSQTLSLTCSFSGFSLSTSGMGVSWIRQPSGKGLEWLAHIWWDDDKRYNPALKSRLTISKDTSNNQVFLRIASVDTADTATYYCVRIGGYFWGQGTSVTVSS
VL: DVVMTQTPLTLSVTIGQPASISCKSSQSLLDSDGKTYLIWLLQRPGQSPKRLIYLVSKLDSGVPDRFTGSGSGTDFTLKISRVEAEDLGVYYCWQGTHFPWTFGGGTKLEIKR
notes: Mouse IgG1 kappa; also called 3C4单抗; 杂交瘤细胞株3C4
- binding result: no binding (tested: 1μg/mL)
